Data taken from the supplement of paper PMC5998384.

Legend:
HeLa Kyoto [1] = test: solubility in G1/S (NP-40 vs SDS abundance) (log2 ratio); higher = more soluble; conditions: cell cycle stage: G1/S
HeLa Kyoto [2] = test: solubility change mitosis vs G1/S (difference of NP-40 vs SDS log2 ratios) (log2 ratio difference); higher = more soluble in mitosis
HeLa Kyoto [3] = test: thermal stability score vs G1/S (z-score of summed log2 fold changes over temperatures); higher = more thermally stable than in G1/S
[4] = cell cycle stage: early G1 (4.5 h after nocodazole release)
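Wherever solubility change mitosis vs G1/S (difference of NP-40 vs SDS log2 ratios) is given: synchronized HeLa Kyoto cells (double thymidine block for G1/S, nocodazole release for mitosis), protein amounts in NP-40 versus SDS lysates quantified by mass spectrometry, three biological replicates.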
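Wherever solubility in G1/S (NP-40 vs SDS abundance) is given: HeLa Kyoto cells arrested at G1/S by double thymidine block, proteins quantified by TMT10plex mass spectrometry in mild NP-40 versus SDS extracts, three biological replicates.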
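Wherever thermal stability score vs G1/S (z-score of summed log2 fold changes over temperatures) is given: synchronized HeLa Kyoto cells, proteins quantified by TMT10plex mass spectrometry, three biological replicates, mitosis taken 0.5 h after nocodazole release, G1/S directly after double thymidine block.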

BMS1, sequence (chain, as listed by the source): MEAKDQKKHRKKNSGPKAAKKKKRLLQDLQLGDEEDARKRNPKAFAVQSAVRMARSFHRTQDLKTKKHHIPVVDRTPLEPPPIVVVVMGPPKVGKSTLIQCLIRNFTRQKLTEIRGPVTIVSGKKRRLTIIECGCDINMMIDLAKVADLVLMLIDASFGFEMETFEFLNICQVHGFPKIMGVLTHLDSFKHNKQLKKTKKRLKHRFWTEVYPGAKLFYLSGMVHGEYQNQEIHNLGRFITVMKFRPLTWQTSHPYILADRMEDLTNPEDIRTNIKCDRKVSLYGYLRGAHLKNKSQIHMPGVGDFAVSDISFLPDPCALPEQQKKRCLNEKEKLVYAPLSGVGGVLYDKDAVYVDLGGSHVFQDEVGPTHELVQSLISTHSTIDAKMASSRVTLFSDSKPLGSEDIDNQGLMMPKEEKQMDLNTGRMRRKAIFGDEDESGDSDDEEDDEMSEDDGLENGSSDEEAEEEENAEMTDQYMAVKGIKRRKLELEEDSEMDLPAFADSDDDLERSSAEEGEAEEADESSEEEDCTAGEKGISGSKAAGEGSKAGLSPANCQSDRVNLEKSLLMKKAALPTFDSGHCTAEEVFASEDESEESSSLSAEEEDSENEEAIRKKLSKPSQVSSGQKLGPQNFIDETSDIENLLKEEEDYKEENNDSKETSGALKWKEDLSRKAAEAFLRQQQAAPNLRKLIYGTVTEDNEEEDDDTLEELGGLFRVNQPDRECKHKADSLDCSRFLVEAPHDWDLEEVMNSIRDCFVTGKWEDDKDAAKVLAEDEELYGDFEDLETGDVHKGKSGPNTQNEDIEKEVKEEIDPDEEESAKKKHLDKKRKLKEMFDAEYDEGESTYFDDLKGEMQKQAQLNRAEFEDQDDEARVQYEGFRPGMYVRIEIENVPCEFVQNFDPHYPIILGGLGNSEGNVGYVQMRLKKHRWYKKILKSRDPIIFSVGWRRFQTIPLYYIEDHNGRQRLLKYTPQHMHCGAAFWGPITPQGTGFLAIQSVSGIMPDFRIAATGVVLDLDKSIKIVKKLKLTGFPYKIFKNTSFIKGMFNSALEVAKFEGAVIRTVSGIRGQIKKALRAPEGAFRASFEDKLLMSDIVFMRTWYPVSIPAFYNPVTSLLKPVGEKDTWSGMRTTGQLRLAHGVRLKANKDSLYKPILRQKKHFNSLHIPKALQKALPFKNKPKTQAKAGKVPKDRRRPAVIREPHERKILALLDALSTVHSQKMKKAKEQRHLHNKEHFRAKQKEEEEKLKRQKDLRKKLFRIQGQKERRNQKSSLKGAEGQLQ
NCOA2, sequence (chain, as listed by the source): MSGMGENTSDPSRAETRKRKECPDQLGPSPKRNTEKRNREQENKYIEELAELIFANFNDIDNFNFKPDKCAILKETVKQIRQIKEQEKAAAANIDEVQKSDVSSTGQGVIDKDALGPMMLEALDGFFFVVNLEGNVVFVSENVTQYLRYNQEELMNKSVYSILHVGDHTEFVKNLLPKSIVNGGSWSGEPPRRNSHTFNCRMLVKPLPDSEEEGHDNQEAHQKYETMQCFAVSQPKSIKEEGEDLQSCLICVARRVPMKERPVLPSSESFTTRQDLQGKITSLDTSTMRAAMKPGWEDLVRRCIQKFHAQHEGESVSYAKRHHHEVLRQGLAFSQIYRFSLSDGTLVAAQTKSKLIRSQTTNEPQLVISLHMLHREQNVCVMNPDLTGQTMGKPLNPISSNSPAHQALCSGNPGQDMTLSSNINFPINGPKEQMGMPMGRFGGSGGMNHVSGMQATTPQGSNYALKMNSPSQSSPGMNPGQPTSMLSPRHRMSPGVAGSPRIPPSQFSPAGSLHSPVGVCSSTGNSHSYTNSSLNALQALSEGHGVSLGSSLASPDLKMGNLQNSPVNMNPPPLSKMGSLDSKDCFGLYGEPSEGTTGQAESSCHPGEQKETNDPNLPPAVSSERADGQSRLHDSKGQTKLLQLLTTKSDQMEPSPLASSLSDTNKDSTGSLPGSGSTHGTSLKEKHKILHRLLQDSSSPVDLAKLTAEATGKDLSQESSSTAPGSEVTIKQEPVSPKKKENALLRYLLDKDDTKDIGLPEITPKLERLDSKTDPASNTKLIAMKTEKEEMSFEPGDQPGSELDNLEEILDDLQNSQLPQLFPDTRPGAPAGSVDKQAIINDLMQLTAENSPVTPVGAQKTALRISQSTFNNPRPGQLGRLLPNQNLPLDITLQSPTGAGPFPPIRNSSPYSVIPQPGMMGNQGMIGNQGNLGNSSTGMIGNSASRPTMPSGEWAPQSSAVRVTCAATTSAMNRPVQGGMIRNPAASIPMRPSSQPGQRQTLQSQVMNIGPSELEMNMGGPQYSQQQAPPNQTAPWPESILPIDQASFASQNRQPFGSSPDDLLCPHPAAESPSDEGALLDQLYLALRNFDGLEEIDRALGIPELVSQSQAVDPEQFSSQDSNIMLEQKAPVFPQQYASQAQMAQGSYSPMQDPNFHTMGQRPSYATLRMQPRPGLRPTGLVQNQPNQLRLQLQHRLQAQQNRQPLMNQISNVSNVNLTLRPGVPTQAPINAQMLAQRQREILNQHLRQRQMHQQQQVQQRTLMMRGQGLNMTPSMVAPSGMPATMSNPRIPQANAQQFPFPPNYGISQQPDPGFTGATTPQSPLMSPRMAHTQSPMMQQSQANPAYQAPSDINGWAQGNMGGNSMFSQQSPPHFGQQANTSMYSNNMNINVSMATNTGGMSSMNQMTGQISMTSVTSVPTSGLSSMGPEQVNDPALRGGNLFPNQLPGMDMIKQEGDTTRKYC
POLR3K, sequence (chain, as listed by the source): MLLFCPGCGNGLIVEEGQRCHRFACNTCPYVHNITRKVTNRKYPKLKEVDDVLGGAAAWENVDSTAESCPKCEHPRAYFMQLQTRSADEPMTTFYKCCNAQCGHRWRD
PEX16, sequence (chain, as listed by the source): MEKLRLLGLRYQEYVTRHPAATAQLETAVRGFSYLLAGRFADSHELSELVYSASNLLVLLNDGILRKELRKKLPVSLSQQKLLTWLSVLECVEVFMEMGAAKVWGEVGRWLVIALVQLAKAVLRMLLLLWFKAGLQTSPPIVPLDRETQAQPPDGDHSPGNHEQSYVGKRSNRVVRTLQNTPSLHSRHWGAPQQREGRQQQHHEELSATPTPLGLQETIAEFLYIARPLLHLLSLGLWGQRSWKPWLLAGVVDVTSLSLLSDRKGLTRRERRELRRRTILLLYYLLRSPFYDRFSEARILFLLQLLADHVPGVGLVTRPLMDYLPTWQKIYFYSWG
TAF5L, sequence (chain, as listed by the source): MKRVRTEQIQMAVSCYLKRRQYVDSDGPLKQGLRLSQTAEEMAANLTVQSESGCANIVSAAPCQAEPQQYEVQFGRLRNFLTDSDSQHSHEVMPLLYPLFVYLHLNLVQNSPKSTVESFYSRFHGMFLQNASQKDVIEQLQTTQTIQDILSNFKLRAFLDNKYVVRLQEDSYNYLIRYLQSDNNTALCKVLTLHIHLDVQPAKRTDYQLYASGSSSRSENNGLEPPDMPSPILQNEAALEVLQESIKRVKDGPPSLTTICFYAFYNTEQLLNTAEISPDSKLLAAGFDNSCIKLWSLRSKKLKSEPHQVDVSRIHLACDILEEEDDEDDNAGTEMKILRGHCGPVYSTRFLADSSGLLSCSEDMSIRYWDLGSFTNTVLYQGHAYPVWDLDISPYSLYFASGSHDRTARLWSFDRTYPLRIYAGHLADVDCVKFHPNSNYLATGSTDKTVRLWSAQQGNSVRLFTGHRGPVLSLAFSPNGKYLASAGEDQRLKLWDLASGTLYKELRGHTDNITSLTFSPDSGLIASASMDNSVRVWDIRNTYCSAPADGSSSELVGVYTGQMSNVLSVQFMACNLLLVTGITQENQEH
TFAP2C, sequence (chain, as listed by the source): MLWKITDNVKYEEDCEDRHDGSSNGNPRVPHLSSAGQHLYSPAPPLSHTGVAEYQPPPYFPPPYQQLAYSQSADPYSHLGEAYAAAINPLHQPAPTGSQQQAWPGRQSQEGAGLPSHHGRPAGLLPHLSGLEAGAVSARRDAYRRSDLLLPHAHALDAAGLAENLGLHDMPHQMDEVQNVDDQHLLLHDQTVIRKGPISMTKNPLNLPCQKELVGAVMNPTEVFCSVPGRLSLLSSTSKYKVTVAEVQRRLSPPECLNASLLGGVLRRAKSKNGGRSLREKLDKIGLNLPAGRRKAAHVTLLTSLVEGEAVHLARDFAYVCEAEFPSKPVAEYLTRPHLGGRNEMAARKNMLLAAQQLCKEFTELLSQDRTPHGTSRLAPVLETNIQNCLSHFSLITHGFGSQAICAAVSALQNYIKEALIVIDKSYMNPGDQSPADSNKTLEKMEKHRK

Substance | solubility in G1/S (log2) (HeLa Kyoto [1]) | solubility change mitosis (log2) (HeLa Kyoto [2]) | thermal stability score (HeLa Kyoto [3]; [4]) | thermal stability score (HeLa Kyoto [3]; cell cycle stage: mitosis)
BLM | -0.848 | 0.632 | -0.277 | -0.894
BMS1 | -2.43 | 0.919 | -1.95 | -3.51
CEP170B | 0.0802 | 0.338 | -3.46e-17 | -1.29e-17
DISP1 | 0.0363 | -0.159 | -0.198 | 0.756
KIAA1671 | -1.28 | 1.05 | -0.863 | -1.71
MAAAAPAAAAASSEAPAASATAEPEAGDQDSREVRVLQSLRGKICEAKNLLPYLGPHKMRDCFCTINLDQEEVYRTQVVEKSLSPFFSEEFYFEIPRTFQYLSFYVYDKNVLQRDLRIGKVAIKKEDLCNHSGKETWFSLQPVDSNSEVQGKVHLELKLNELITENGTVCQQLVVHIKACHGLPLINGQSCDPYATVSLVGPSRNDQKKTKVKKKTSNPQFNEIFYFEVTRSSSYTRKSQFQVEEEDIEKLEIRIDLWNNGNLVQDVFLGEIKVPVNVLRTDSSHQAWYLLQPRDNGNKSSKTDDLGSLRLNICYTEDYVLPSEYYGPLKTLLLKSPDVQPISASAAYILSEICRDKNDAVLPLVRLLLHHDKLVPFATAVAELDLKDTQDANTIFRGNSLATRCLDEMMKIVGGHYLKVTLKPILDEICDSSKSCEIDPIKLKEGDNVENNKENLRYYVDKLFNTIVKSSMSCPTVMCDIFYSLRQMATQRFPNDPHVQYSAVSSFVFLRFFAVAVVSPHTFHLRPHHPDAQTIRTLTLISKTIQTLGSWGSLSKSKSSFKETFMCEFFKMFQEEGYIIAVKKFLDEISSTETKESSGTSEPVHLKEGEMYKRAQGRTRIGKKNFKKRWFCLTSRELTYHKQPGSKDAIYTIPVKNILAVEKLEESSFNKKNMFQVIHTEKPLYVQANNCVEANEWIDVLCRVSRCNQNRLSFYHPSVYLNGNWLCCQETGENTLGCKPCTAGVPADIQIDIDEDRETERIYSLFTLSLLKLQKMEEACGTIAVYQGPQKEPDDYSNFVIEDSVTTFKTIQQIKSIIEKLDEPHEKYRKKRSSSAKYGSKENPIVGKAS [RASA2] | -0.1 | -0.128 | 0.349 | 0.0928
MAADVVGDVYVLVEHPFEYTGKDGRRVAIRPNERYRLLRRSTEHWWHVRREPGGRPFYLPAQYVRELPALGNPAAAAPPGPHPSPAAPEPLAYDYRFVSAAATAGPDGAPEESGGRASSLCGPAQRGAATQRSSLAPGLPACLYLRPAAPVRPAQSLNDLACAAVSPPAGLLGSSGSFKACSVAGSWVCPRPLARSDSENVYEVIQDLHVPPPEESAEQVDDPPEPVYANIERQPRATSPGAAAAPLPSPVWETHTDAGTGRPYYYNPDTGVTTWESPFEAAEGAASPATSPASVDSHVSLETEWGQYWDEESRRVFFYNPLTGETAWEDEAENEPEEELEMQPGLSPGSPGDPRPPTPETDYPESLTSYPEEDYSPVGSFGEPGPTSPLTTPPGWSCHVSQDKQMLYTNHFTQEQWVRLEDPHGKPYFYNPEDSSVRWELPQVPVPAPRSIHKSSQDGDTPAQASPPEEKVPAELDEVGSWEEVSPATAAVRTKTLDKAGVLHRTKTADKGKRLRKKHWSASWTVLEGGVLTFFKDSKTSAAGGLRQPSKFSTPEYTVELRGATLSWAPKDKSSRKNVLELRSRDGSEYLIQHDSEAIISTWHKAIAQGIQELSAELPPEESESSRVDFGSSERLGSWQEKEEDARPNAAAPALGPVGLESDLSKVRHKLRKFLQRRPTLQSLREKGYIKDQVFGCALAALCERERSRVPRFVQQCIRAVEARGLDIDGLYRISGNLATIQKLRYKVDHDERLDLDDGRWEDVHVITGALKLFFRELPEPLFPFSHFRQFIAAIKLQDQARRSRCVRDLVRSLPAPNHDTLRMLFQHLCRVIEHGEQNRMSVQSVAIVFGPTLLRPEVEETSMPMTMVFQNQVVELILQQCADIFPPH [ARHGAP27] | 0.0968 | -0.164 | 2.18 | 0.927
MAAPAPGAGAASGGAGCSGGGAGAGAGSGSGAAGAGGRLPSRVLELVFSYLELSELRSCALVCKHWYRCLHGDENSEVWRSLCARSLAEEALRTDILCNLPSYKAKIRAFQHAFSTNDCSRNVYIKKNGFTLHRNPIAQSTDGARTKIGFSEGRHAWEVWWEGPLGTVAVIGIATKRAPMQCQGYVALLGSDDQSWGWNLVDNNLLHNGEVNGSFPQCNNAPKYQIGERIRVILDMEDKTLAFERGYEFLGVAFRGLPKVCLYPAVSAVYGNTEVTLVYLGKPLDG [FBXO45] | 0.344 | -0.17 | -0.0815 | -0.292
MAAVVAATALKGRGARNARVLRGILAGATANKASHNRTRALQSHSSPEGKEEPEPLSPELEYIPRKRGKNPMKAVGLAWYSLYTRTWLGYLFYRQQLRRARNRYPKGHSKTQPRLFNGVKVLPIPVLSDNYSYLIIDTQAQLAVAVDPSDPRAVQASIEKEGVTLVAILCTHKHWDHSGGNRDLSRRHRDCRVYGSPQDGIPYLTHPLCHQDVVSVGRLQIRALATPGHTQGHLVYLLDGEPYKGPSCLFSGDLLFLSGCGRTFEGNAETMLSSLDTVLGLGDDTLLWPGHEYAEENLGFAGVVEPENLARERKMQWVQRQRLERKGTCPSTLGEERSYNPFLRTHCLALQEALGPGPGPTGDDDYSRAQLLEELRRLKDMHKSK [PNKD] | -0.0413 | -0.135 | 0.265 | -0.394
MAELDQLPDESSSAKALVSLKEGSLSNTWNEKYSSLQKTPVWKGRNTSSAVEMPFRNSKRSRLFSDEDDRQINTRSPKRNQRVAMVPQKFTATMSTPDKKASQKIGFRLRNLLKLPKAHKWCIYEWFYSNIDKPLFEGDNDFCVCLKESFPNLKTRKLTRVEWGKIRRLMGKPRRCSSAFFEEERSALKQKRQKIRLLQQRKVADVSQFKDLPDEIPLPLVIGTKVTARLRGVHDGLFTGQIDAVDTLNATYRVTFDRTGLGTHTIPDYEVLSNEPHETMPIAAFGQKQRPSRFFMTPPRLHYTPPLQSPIIDNDPLLGQSPWRSKISGSDTETLGGFPVEFLIQVTRLSKILMIKKEHIKKLREMNTEAEKLKSYSMPISIEFQRRYATIVLELEQLNKDLNKVLHKVQQYCYELAPDQGLQPADQPTDMRRRCEEEAQEIVRHANSSTGQPCVENENLTDLISRLTAILLQIKCLAEGGDLNSFEFKSLTDSLNDIKSTIDASNISCFQNNVEIHVAHIQSGLSQMGNLHAFAANNTNRD [LIN9] | 0.183 | 0.143 | 2.27 | 3.4
MAGENFATPFHGHVGRGAFSDVYEPAEDTFLLLDALEAAAAELAGVEICLEVGSGSGVVSAFLASMIGPQALYMCTDINPEAAACTLETARCNKVHIQPVITDLVKGLLPRLTEKVDLLVFNPPYVVTPPQEVGSHGIEAAWAGGRNGREVMDRFFPLVPDLLSPRGLFYLVTIKENNPEEILKIMKTKGLQGTTALSRQAGQETLSVLKFTKS [N6AMT1] | 0.483 | 0.0523 | 0.341 | 0.273
MYFLSGWPKRLLCPLGSPAEAPFHVQSDPQRAFFAVLAAARLSIWYSRPSVLIVTYKEPAKSSTQFGSYKQAEWRPDSTMIAVSTANGYILFFHITSTRGDKYLYEPVYPKGSPQMKGTPHFKEEQCAPALNLEMRKILDLQAPIMSLQSVLEDLLVATSDGLLHLIHWEGMTNGRKAINLCTVPFSVDLQSSRVGSFLGFTDVHIRDMEYCATLDGFAVVFNDGKVGFITPVSSRFTAEQLHGVWPQDVVDGTCVAVNNKYRLMAFGCVSGSVQVYTIDNSTGAMLLSHKLELTAKQYPDIWNKTGAVKLMRWSPDNSVVIVTWEYGGLSLWSVFGAQLICTLGGDFAYRSDGTKKDPLKINSMSWGAEGYHLWVISGFGSQNTEIESDLRSVVKQPSILLFQFIKSVLTVNPCMSNQEQVLLQGEDRLYLNCGEASQTQNPRSSSTHSEHKPSREKSPFADGGLESQGLSTLLGHRHWHVVQISSTYLESNWPIRFSAIDKLGQNIAVVGKFGFAHYSLLTKKWKLFGNITQEQNMIVTGGLAWWNDFMVLACYNINDRQEELRVYLRTSNLDNAFAHVTKAQAETLLLSVFQDMVIVFRADCSICLYSIERKSDGPNTTAGIQVLQEVSMSRYIPHPFLVVSVTLTSVSTENGITLKMPQQARGAESIMLNLAGQLIMMQRDRSGPQIREKDSNPNNQRKLLPFCPPVVLAQSVENVWTTCRANKQKRHLLEALWLSCGGAGMKVWLPLFPRDHRKPHSFLSQRIMLPFHINIYPLAVLFEDALVLGAVNDTLLYDSLYTRNNAREQLEVLFPFCVVERTSQIYLHHILRQLLVRNLGEQALLLAQSCATLPYFPHVLELMLHEVLEEEATSREPIPDPLLPTVAKFITEFPLFLQTVVHCARKTEYALWNYLFAAVGNPKDLFEECLMAQDLDTAASYLIILQNMEVPAVSRQHATLLFNTALEQGKWDLCRHMIRFLKAIGSGESETPPSTPTAQEPSSSGGFEFFRNRSISLSQSAENVPASKFSLQKTLSMPSGPSGKRWSKDSDCAENMYIDMMLWRHARRLLEDVRLKDLGCFAAQLGFELISWLCKERTRAARVDNFVIALKRLHKDFLWPLPIIPASSISSPFKNGKYRTVGEQLLKSQSADPFLNLEMDAGISNIQRSQSWLSNIGPTHHEIDTASSHGPQMQDAFLSPLSNKGDECSIGSATDLTESSSMVDGDWTMVDENFSTLSLTQSELEHISMELASKGPHKSQVQLRYLLHIFMEAGCLDWCIVIGLILRESSIINQILVITQSSEVDGEMLQNIKTGLHAVDRWASTDCPGYKPFLNIIKPQLQKLSEITEEQVQPDAFQPITMGKTPEQTSPRAEESRGSSSHGSIPQGEVGSSNMVSRKEEDTAQAEEEEPFQDGTYDCSVS [RIC1] | -0.168 | 0.129 |  | 
MYO9A | -0.102 | 0.00755 |  | 
MYTITKGPSKLVAQRRTGPTQQQVEGRLGELLKCRQPAPPTSQPPRAQPFAQPPGPWPLSSPGPRLVFNRVNGRRAPSTSPSFEGTQETYTVAHEENVRFVSEAWQQVQQQLDGGPAGEGGPRPVQYVERTPNPRLQNFVPIDLDEWWAQQFLARITSCS [FAM195A] | -0.457 | 0.195 |  | 
NAV2 | -0.147 | 0.109 |  | 
NBEAL1 | -0.894 | -0.118 |  | 
NCOA2 | 0.178 | -0.129 |  | 
NES | -1.35 | 0.912 |  | 

Substance | solubility in G1/S (log2) (HeLa Kyoto [1]) | solubility change mitosis (log2) (HeLa Kyoto [2]) | thermal stability score (HeLa Kyoto [3]; [4]) | thermal stability score (HeLa Kyoto [3]; cell cycle stage: mitosis)
NSA2 | -2.43 | 1.41 |  | 
OBSL1 | -0.276 | -0.0157 |  | 
PDCD11 | -2.88 | 1.53 |  | 
PEX16 | -0.248 | -0.0414 |  | 
POLR3K | 0.354 | 0.031 |  | 
PRR14L | -0.0161 | 0.0491 |  | 
RIMS1 | 0.0741 | 0.0888 |  | 
SHPRH | -0.418 | 0.00438 |  | 
SLC7A6 | -0.00617 | -0.122 |  | 
SMG6 | -0.859 | 0.113 |  | 
SZT2 | -0.476 | 0.317 |  | 
TAF5L | -0.145 | -0.0612 |  | 
TFAP2C | -0.0214 | 0.119 |  | 
TNRC18 | 0.0268 | -0.234 |  | 
TTC28 | 0.0118 | -0.133 |  | 
ZFYVE26 | 0.0351 | -0.0176 |  | 
ZNF106 | -1.19 | 0.915 |  | 
